Article PMC2724277

These binders were tested against NusA-SKK (Escherichia coli, UniProt P0AFF6 132-348) (assay: fluorescence anisotropy).
NusA-SKK, sequence (P0AFF6 132-348): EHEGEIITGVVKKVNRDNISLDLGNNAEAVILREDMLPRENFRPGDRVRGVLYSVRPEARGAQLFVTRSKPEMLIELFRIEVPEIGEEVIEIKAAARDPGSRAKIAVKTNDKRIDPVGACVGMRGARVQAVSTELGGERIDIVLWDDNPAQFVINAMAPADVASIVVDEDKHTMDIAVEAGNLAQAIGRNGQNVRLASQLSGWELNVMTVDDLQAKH

| Binder | Kd | binding result |
| --- | --- | --- |
| CGCUCUUACACAUUCCA (ssRNA) [nutR boxA-spacer] | 126 ± 4 µM |  |
| CGCUCUUAAAAAUUAA (ssRNA) [nutL boxA-spacer] | 71 ± 4 µM |  |
| ACAAUUUA (ssRNA) [rrn spacer (III)] | 71 ± 3.3 µM |  |
| CGCUCUUA (ssRNA) [nutR boxA (same sequence as nutL boxA)] |  | no binding |
| CGCUCUUAAAAAGGAA (ssRNA) [nutL boxA-spacer (mut)] |  | no binding |
| AGCCCUGAAAAAGGGC (structured_RNA) [nutR boxB] |  | no binding |
| CACUGCUCUUUAACAAUUUA (ssRNA) [rrn cac-boxA-spacer] | 14 ± 0.2 µM |  |
| CACAUUCCA (ssRNA) [nutR spacer] | 137 ± 17 µM |  |
| AAAAUUAA (ssRNA) [nutL spacer] | 24 ± 2.2 µM |  |
| CUCUCUUACACAUUCCA (ssRNA) [nutR boxA5-spacer] | 124 ± 7 µM |  |
| CGCUAUUACACAUUCCA (ssRNA) [nutR boxA16-spacer] | 106 ± 4 µM |  |
